Source: patent US20190284293A1, “COMBINATION THERAPY WITH ANTI-CD73 ANTIBODIES” (BRISTOL-MYERS SQUIBB COMPANY, priority 2016, published 2019)
Positions count from the first letter of the chain named.

T1: CD32a-H131 (FcgRIIa-H131) (Homo sapiens, UniProt P12318)
T1 sequence (P12318 34-217 limits assumed): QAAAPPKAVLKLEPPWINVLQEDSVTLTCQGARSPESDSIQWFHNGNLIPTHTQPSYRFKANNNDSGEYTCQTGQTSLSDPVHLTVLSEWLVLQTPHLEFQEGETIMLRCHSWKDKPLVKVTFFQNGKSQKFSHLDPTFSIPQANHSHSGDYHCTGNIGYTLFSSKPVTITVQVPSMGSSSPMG

T2: CD32a-R131 (FcgRIIa-R131) (Homo sapiens, UniProt P12318, H167R)
T2 sequence (P12318 34-217 H167R limits assumed): T1 sequence (P12318 34-217 limits assumed) with H134R

T3: CD32b (FcgRIIb) (Homo sapiens, UniProt P31994)
T3 sequence (P31994 43-310): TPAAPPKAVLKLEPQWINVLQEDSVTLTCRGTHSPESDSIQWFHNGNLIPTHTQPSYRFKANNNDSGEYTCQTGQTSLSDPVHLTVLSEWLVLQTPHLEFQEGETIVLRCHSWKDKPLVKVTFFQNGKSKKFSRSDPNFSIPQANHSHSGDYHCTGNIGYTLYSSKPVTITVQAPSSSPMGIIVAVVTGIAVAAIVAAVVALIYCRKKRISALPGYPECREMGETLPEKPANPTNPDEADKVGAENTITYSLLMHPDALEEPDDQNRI

B1: mAb8-IgG2.5 (protein)
constant: ASTKGPSVFPLAPSSRSTSESTAALGCLVKDYFPEPVTVSWNSGALTSGVHTFPAVLQSSGLYSLSSVVTVPSSNFGTQTYTCNVDHKPSNTKVDKTVERKCCVECPPCPAPPVAGPSVFLFPPKPKDTLMISRTPEVTCVVVDVSHEDPEVQFNWYVDGVEVHNAKTKPREEQFNSTFRVVSVLTVVHQDWLNGKEYKCKVSNKGLPAPIEKTISKTKGQPREPQVYTLPPSREEMTKNQVSLTCLVKGFYPSDIAVEWESNGQPENNYKTTPPMLDSDGSFFLYSKLTVDKSRWQQGNVFSCSVMHEALHNHYTQKSLSLSPGK
modifications: left off: another chain or arm of the molecule
B2: mAb13-IgG2.5 (protein)
constant: B1 constant
modifications: left off: another chain or arm of the molecule
B3: mAb6-IgG2.5 (protein)
constant: B1 constant
modifications: left off: another chain or arm of the molecule
B4: mAb5-IgG2.5 (protein)
constant: B1 constant
modifications: left off: another chain or arm of the molecule
B5: mAb4-IgG2.5 (protein)
constant: B1 constant
modifications: left off: another chain or arm of the molecule
B6: mAb7-IgG2.3G1-AY-V27 (protein)
constant: ASTKGPSVFPLAPCSRSTSESTAALGCLVKDYFPEPVTVSWNSGALTSGVHTFPAVLQSSGLYSLSSVVTVPSSNFGTQTYTCNVDHKPSNTKVDKTVERKSCVECPPCPAPELLGGPSVFLFPPKPKDTLMISRTPEVTCVVVDVEHEDPEVKFNWYVDGVEVHNAKTKPREEQYNSTYRVVSVLTVLHQDWLNGKEYKCKVSNKALPAPIEKTISKAKGQPREPQVYTLPPSREEMTKNQVSLTCLVKGFYPSDIAVEWESNGQPENNYKTTPPVLDSDGSFFLYSKLTVDKSRWQQGNVFSCSVMHEALHNHYTQKSLSLSPGK
modifications: left off: another chain or arm of the molecule

What follows are molecules tested against T1, CD32a-H131 (FcgRIIa-H131) (assay: SPR, antibody binding to anti-his Fab captured FcgR-his (% Rmax)). Details: 1 μM antibody.
Protocol: (§1) The binding of antibodies to Fc gamma receptors (FcγRs or FcgRs) was studied using biosensor technologies including Biacore surface plasmon resonance (SPR) and Fortebio Biolayer Interferometry (BLI). SPR studies were performed on a Biacore T100 instrument (GE Healthcare) at 25° C. The Fab fragment from a murine anti-6×His antibody was immobilized on a CM5 sensor chip using EDC/NHS to a density of −3000 RU. Various his-tagged FcgRs (7 ug/ml) were captured via the C-terminal his-tag using a contact time of 30 s at 10 ul/min, and the binding of 1.0 μM antibody was evaluated in a running buffer of 10 mM NaPO4, 130 mM NaCl, 0.05% p20 (PBS-T) pH 7.1. FcgRs used for these experiments included CD64 (FcgRI), CD32a-H131 (FcgRIIa-H131), CD32a-R131 (FcgRIIa-R131), CD32b (FcgRIIb), CD16a-V158 (FcgRIIIa-V158), CD16b-NA1 (FcgRIIIb-NA1), and CD16B-NA2 (FcgRIIIb-NA2). BLI experiments were performed on a Fortebio Octet RED instrument (Pall, Fortebio) at 25° C. in 10 mM NaPO4, 130 mM NaCl, 0.05% p20 (PBS-T) pH 7.1. Antibodies were captured out of undiluted expression supernatants on protein A coated sensors, followed by the binding of 1 μM hCD32a-H131, hCD32a-R131, hCD32b, hCD16a-V158, or 0.1 μM hCD64 analytes.

Molecule	% Rmax hCD32a-H131
B1	59%
B2	39%
B3	75%
B4	89%
B5	46%
B6	68%

The molecules below were run against T2, CD32a-R131 (FcgRIIa-R131) in the same assay as above. Details: 1 μM antibody.
Protocol: as §1

Molecule	% Rmax hCD32a-R131
B1	14%
B2	4%
B3	17%
B4	26%
B5	8%
B6	92%

What follows are molecules tested against CD16a-V158 (FcgRIIIa-V158) (Homo sapiens, UniProt P08637, F176V) in the same assay as above. Details: 1 μM antibody.
Sequence of CD16a-V158 (FcgRIIIa-V158) (P08637 17-208 F176V limits assumed): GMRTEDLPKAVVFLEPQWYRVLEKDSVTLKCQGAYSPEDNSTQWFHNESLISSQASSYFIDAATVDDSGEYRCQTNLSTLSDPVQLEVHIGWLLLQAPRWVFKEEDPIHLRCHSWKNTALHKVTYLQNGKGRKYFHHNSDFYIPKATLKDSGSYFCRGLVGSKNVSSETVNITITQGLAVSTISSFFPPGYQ
Protocol: as §1

Molecule	% Rmax hCD16a-V158
B1	2%
B2	0%
B3	2%
B4	4%
B5	1%
B6	26%

These molecules were tested against T3, CD32b (FcgRIIb) in the same assay as above. Details: 1 μM antibody.
Protocol: as §1

Molecule	% Rmax hCD32b
B1	3%
B2	−2%
B3	4%
B4	5%
B5	1%
B6	76%

Each molecule was assayed against CD64 (FcgRI) (Homo sapiens, UniProt P12314) in the same assay as above. Details: 1 μM antibody.
Sequence of CD64 (FcgRI) (P12314 16-374): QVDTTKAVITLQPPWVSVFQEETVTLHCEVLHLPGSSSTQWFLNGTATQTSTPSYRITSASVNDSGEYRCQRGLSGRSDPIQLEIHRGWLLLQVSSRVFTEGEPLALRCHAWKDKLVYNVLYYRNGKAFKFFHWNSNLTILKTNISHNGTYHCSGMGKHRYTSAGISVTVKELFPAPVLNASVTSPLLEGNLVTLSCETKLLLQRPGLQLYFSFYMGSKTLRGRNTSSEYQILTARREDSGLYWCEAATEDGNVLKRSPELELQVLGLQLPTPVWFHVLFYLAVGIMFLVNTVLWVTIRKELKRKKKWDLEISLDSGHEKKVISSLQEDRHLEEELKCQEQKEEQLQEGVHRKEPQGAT
Protocol: as §1

Molecule	% Rmax hCD64
B1	3%
B2	−2%
B3	3%
B4	6%
B5	2%
B6	84%

These molecules were tested against CD16B-NA2 (FcgRIIIb-NA2) (Homo sapiens, UniProt O75015) in the same assay as above. Details: 1 μM antibody.
Sequence of CD16B-NA2 (FcgRIIIb-NA2) (O75015 17-200 limits assumed): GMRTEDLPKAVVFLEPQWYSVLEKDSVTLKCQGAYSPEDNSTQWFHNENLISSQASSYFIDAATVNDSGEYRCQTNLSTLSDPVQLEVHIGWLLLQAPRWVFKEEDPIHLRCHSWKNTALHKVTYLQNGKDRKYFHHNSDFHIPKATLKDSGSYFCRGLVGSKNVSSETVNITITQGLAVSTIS
Protocol: as §1

Molecule	% Rmax hCD16B-NA2
B1	0%
B2	−2%
B3	0%
B4	1%
B5	0%
B6	7%
